# Results published in US20080293626A1, “Pigment epithelium-derived factor as a therapeutic agent for vascular leakage” (The Johns Hopkins University, priority 2003, published 2008).
# Entries after “also recorded” stand apart in the source; their conditions may differ.
# B1: HSP47: heat shock protein 47, collagen-specific chaperone protein from the serpin family, control protein (protein, UniProt P50454 19-418, looked up)
# Serpin H1: AEVKKPAAAAAPGTAEKLSPKAATLAERSAGLAFSLYQAMAKDQAVENILVSPVVVASSLGLVSLGGKATTASQAKAVLSAEQLRDEEVHAGLGELLRSLSNSTARNVTWKLGSRLYGPSSVSFADDFVRSSKQHYNCEHSKINFRDKRSALQSINEWAAQTTDGKLPEVTKDVERTDGALLVNAMFFKPHWDEKFHHKMVDNRGFMVTRSYTVGVMMMHRTGLYNYYDDEKEKLQIVEMPLAHKLSSLIILMPHHVEPLERLEKLLTKEQLKIWMGKMQKKAVAISLPKGVVEVTHDLQKHLAGLGLTEAIDKNKADLSRMSGKKDLYLASVFHATAFELDTDGNPFDQDIYGREELRSPKLFYADHPFIFLVRDTQSGSLLFIGRLVRPKGDKMRDEL
# B2: ACT: α1-antichymotrypsin, a classical serpin used as control protein (protein, UniProt P01011 24-423, looked up)
# Alpha-1-antichymotrypsin: HPNSPLDEENLTQENQDRGTHVDLGLASANVDFAFSLYKQLVLKAPDKNVIFSPLSISTALAFLSLGAHNTTLTEILKGLKFNLTETSEAEIHQSFQHLLRTLNQSSDELQLSMGNAMFVKEQLSLLDRFTEDAKRLYGSEAFATDFQDSAAAKKLINDYVKNGTRGKITDLIKDLDSQTMMVLVNYIFFKAKWEMPFDPQDTHQSRFYLSKKKWVMVPMMSLHHLTIPYFRDEELSCTVVELKYTGNASALFILPDQDKMEEVEAMLLPETLKRWRDSLEFREIGELYLPKFSISRDYNLNDILLQLGIEEAFTSKADLSGITGARNLAVSQVVHKAVLDVFEEGTEASAATAVKITLLSALVETRTIVRFNRPFLMIIVPTDTQNIFFMSKVTNPKQA
# B3: PEDF: Recombinant human pigment epithelium-derived factor, 418-amino acid 50-kDa glycoprotein, produced in 293 cells (SEQ ID NO: 1) (protein, listed as Homo sapiens)
# chain: MQALVLLLCIGALLGHSSCQNPASPPEEGSPDPDSTGALVEEEDPFFKVPVNKLAAAVSNFGYDLYRVRSSMSPTTNVLLSPLSVATALSALSLGAEQRTESIIHRALYYDLISSPDIHGTYKELLDTVTAPQKNLKSASRIVFEKKLRIKSSFVAPLEKSYGTRPRVLTGNPRLDLQEINNWVQAQMKGKLARSTKEIPDELSLLLLGVAHFKGQWVTKFDSRKTSLEDFYLDEERTVRVPMMSDPKAVLRYGLDSDLSCKIAQLPLTGSMSLIFFLPLKVTQNLTLIEESLTSEFIHDIDRELKTVQAVLTVPKLKLSYEGEVTKSLQEMKLQSLFDSPDFSKITGKPIKLTQVEHRAGFEWNEDGAGTTPSPGLQPAHLTFPLDYHLNQPFIFVLRDTDTGALLFIGKILDPRGP
# modifications: glycosylated
# Columns and labels:
# [1] = tested on: VEGF-induced retinal vascular permeability; assay: Fluorescein angiography after intravitreal co-injection with VEGF164; assay type: in vivo, mouse (C57BL/6J); conditions: mouse eye, co-injected intravitreally with 12.6 ng VEGF164 at 20-fold molar excess; 20 h after injection; qualitative
# Description: (§1) Intravitreal injection to assess bioactivity on vascular permeability. C57BL/6J mice, 6-8 weeks of age, were cared for in accordance with the Association for Research in Vision and Opthalmology Statement for the Use of Animals in Ophthalmic and Vision Research. For anesthesia, each received intramuscularly 20 mg/kg ketamine, 20 mg/kg xylazine and 800 mg/kg urethane in 0.3-0.4 ml of phosphate buffered saline (PBS, 1.06 mM KH2PO4, 0.15 M NaCl and 3.00 mM Na2HPO4, pH 7.4). Under 10× magnification, 1 μl of murine VEGF164 (12.6 ng/μl in PBS; R&D Systems, Minneapolis, Minn.) was delivered through a 20° beveled glass pipette, with a tip diameter of 13-20 μm. The contralateral eye received an equal volume of PBS alone or PBS containing 12.6 ng VEGF164, and a 20-fold molar excess of PEDF (232 ng), ACT (278 ng), HSP47 (278 ng), PEDFpep (28.1 ng), ACTpep (29.7 ng), or CHIMERApep (28.2 ng).
# Fluorescein angiograghy. Twenty hours after intravitreal injections, each pupil was dilated with one drop of 1% atropine sulfate. After intraperitoneal injection of 0.1 ml of 25% fluorescein, successive retina photographs were taken with a Kowa Genesis camera. The first photograph was taken within 20 seconds of the intraperitoneal fluorescein injection. Time elapsed between the alternating right and left eye retinal photographs averages 10 seconds. Fluorescein leakage manifests as indistinct vascular borders progressing to diffusely hazy fluorescence.
# [2] = tested on: VEGF-induced retinal vascular permeability; assay: Evans blue assay after intravitreal co-injection with VEGF164; assay type: in vivo, mouse (C57BL/6J); conditions: mouse eye, co-injected intravitreally with VEGF164 at 20-fold molar excess; for inhibition of VEGF-induced retinal vascular permeability (Evans blue-albumin): 24 h, VEGF-induced increase = 100%, mean ±SE
# Description: as §1
# Evans Blue assay. We used a modification of the method described by Qaum et al.^44 Briefly, each mouse received intravitreal injections of proteins or peptides, and intrajugular injection of Evans blue^44. After 2 hours, 200 μl blood was taken and assayed for Evans blue. The retina was extruded and dissected free from any vitreous or adherent retinal pigment epithelium.
# To assess the Evans blue-albumin concentration, the optical density of the retinal extract and plasma samples were measured at 620 nm and 740 nm. The retinal vasopermeability was calculated as the quantity of retinal Evans blue normalized to retinal dry weight, plasma Evans blue concentration, and circulation time by using the formula as described^32,44. Since all animals in this report had 1 eye injected with VEGF alone, the retinal permeability in the VEGF injected eyes was normalized to the VEGF injected eye in the set of animals where 1 eye received PBS. The VEGF-induced increase in permeability was taken to be 100%.
# [3] = tested on: VEGF164-stimulated bovine retinal capillary endothelial cell migration; conditions: read-out: IC50, inhibition of VEGF-stimulated endothelial cell migration; BRCEC, VEGF164-stimulated, 8 hours at 37° C.
# Description: BRCEC migration assay. Bovine retinal capillary endothelial cells (BRCEC) were isolated and cultured as described 45. […] Cells, between the fifth and ninth passage, were starved overnight in MEM with D-Val and 2% fetal bovine serum. Polycarbonate filters (10 μm pore-size, PVPF; Osmonics Inc., Minnetonka, Minn.) were coated with 100 μg/ml collagen. Quadruplicates with test samples in MEM D-Val (28 μl), and 10^4 cells in MEM D-Val (50 μl) were placed in the lower and upper wells, respectively, of the microchemotaxis chamber (NeuroProbe, Gaithersburg, Md.). After incubating 8 hours at 37° C., the non-migrated cells on the upper surface of the filter were removed, and the filters were stained with Harris' hematoxylin. For each of the test samples, one 400× field per quadrant of each of the quadruplicates was counted. From the total cell number in the 4 fields, the mean and standard error of the quadruplicate wells were calculated. Baseline migration equaled the number of migrated cells with MEM D-Val without any added proteins or peptides. The difference between baseline and the number of migrated cells with VEGF added equals maximal total migration.
Molecule,effect on VEGF-induced fluorescein leakage / vascular permeability (fluorescein angiography) [1],inhibition of VEGF-induced retinal vascular permeability (Evans blue-albumin) [2] [%],effect on VEGF-induced vascular permeability by Evans blue assay ([2]; qualitative statement),IC50 [3] [nM]
B1,no effect,19.4±22.3,–,–
B2,no effect,3.4±18.2,–,–
B3,not observed; also recorded: inhibits,95.6±21.2,obliterated,0.5
